Data on two molecules can be found in patent US20100310561A1, “NATRIURETIC FUSION PROTEINS” (BOEHRINGER INGELHEIM INTERNATIONAL GMBH, priority 2007, published 2010).

This data set is described as follows: Single-dose rat PK study of recombinant ANP-Fc fusions, i.v. or s.c. Type of data set: in vivo. The conditions noted are these: 1 mg/kg, Sprague Dawley rats. On the procedure: The pharamacokinetics of the recombinant ANP-Fc fusion candidates were assessed by running a single-dose rat PK study. Single bolus injections of ANP-Fc fusions at 1 mg/kg dose were given to Sprague Dawley rats via i.v. or s.c. injection. Vehicle control PBS injections were given to a control group of animals. […] Animals were sampled for 1 week with a contingency group going up to 3 weeks. After sampling the animals were quarantined and the plasma samples with EDTA and Aprotinin are assayed in a sandwich ELISA where the ANP is captured with a monoclonal antibody and detected with an anti-human Fc antibody. The ELISA has a sensitivity of 1 ng/mL and may be used to detect ANP-Fc fusion proteins in rat plasma. This rat PK data permits the comparison of the in vivo half-life of the ANP-Fc fusion proteins to that of the native ligand, hANP28.

B1: ANPXY-L4-Fc2AB (protein)
chain: SLRRSSCFGGRMDRIGAQSGLGCNSFRYGGSGGSGGSGGCPPCPAPPVAGPSVFLFPPKPKDTLMISRTPEVTCVVVDVSHEDPEVQFNWYVDGVEVHNAKTKPREEQFNSTFRVVSVLTVVHQDWLNGKEYKCKVSNKGLPAPIEKTISKTKGQPREPQVYTLPPSREEMTKNQVSLTCLVKGFYPSDIAVEWESNGQPENNYKTTPPMLDSDGSFFLYSKLTVDKSRWQQGNVFSCSVMHEALHNHYTQKSLSLSPGK
modifications: Synthesized ANPxy-L4-Fc2ab (protein)
Turning to B1, where the note is “intravenous bolus”, the “half-life (T½)” value was determined as 16.8 h, the “mean resonance time (MRT)” value worked out at 3.91 h and the “volume of distribution (Vss)” value was 0.61 L/kg. Further, under “subcutaneous”, the “area under the curve (AUC)” value was 2671 ng·h/mL, the “half-life (T½)” value was 23.1 h, the “maximum serum concentration obtained (Cmax)” value turned out to be 53.5 ng/mL and the “percent bioavailability (% F)” value was 20.6%.

B2: ANPXY-L6-Fc2AB (protein)
chain: SLRRSSCFGGRMDRIGAQSGLGCNSFRYGGSGGSGGSGGSGGSGGSGGCPPCPAPPVAGPSVFLFPPKPKDTLMISRTPEVTCVVVDVSHEDPEVQFNWYVDGVEVHNAKTKPREEQFNSTFRVVSVLTVVHQDWLNGKEYKCKVSNKGLPAPIEKTISKTKGQPREPQVYTLPPSREEMTKNQVSLTCLVKGFYPSDIAVEWESNGQPENNYKTTPPMLDSDGSFFLYSKLTVDKSRWQQGNVFSCSVMHEALHNHYTQKSLSLSPGK
modifications: Synthesized ANPxy-L6-Fc2ab
In the case of B2, where the note is “intravenous bolus”, the “half-life (T½)” value stood at 11.7 h, the “mean resonance time (MRT)” value is 3.08 h and the “volume of distribution (Vss)” value worked out at 0.76 L/kg. Besides, where the note is “subcutaneous”, the “area under the curve (AUC)” value was 2202 ng·h/mL, the “half-life (T½)” value stood at 20.6 h, the “maximum serum concentration obtained (Cmax)” value was found to be 44 ng/mL and the “percent bioavailability (% F)” value worked out at 26.3%.
